According to patent US20230203180A1:

Target: transferrin receptor (on Hepa 1-6 cells; in tissues of C57BL/6 wild-type mice) (mouse) (UniProt Q62351)
Test: cell-based or functional assay

Chain of UniProt Q62351 (Q62351 whole entry): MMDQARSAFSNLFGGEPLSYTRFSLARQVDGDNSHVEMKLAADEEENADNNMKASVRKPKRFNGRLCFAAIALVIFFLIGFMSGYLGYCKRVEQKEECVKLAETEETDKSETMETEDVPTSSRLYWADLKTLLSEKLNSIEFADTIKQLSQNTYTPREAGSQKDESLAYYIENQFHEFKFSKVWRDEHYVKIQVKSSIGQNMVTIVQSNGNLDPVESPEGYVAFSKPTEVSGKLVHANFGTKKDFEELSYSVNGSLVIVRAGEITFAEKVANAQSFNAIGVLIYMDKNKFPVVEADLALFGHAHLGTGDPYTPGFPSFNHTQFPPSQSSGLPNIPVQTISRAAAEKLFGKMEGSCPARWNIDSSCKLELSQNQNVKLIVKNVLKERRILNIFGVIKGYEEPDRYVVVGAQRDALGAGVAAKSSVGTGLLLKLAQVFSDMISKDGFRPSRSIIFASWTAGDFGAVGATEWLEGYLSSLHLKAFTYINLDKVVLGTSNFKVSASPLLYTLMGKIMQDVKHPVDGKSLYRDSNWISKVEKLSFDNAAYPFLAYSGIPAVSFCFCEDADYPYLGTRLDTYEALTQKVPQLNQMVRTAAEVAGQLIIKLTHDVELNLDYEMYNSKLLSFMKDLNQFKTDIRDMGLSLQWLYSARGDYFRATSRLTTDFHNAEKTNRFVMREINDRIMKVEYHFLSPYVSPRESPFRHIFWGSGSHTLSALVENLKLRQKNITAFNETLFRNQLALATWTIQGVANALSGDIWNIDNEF

- reduction in HPRT expression in Hepa 1-6 cells (100 nM complex, 72 hours): 50%
- reduction in HPRT expression in gastrocnemius of C57BL/6 mice (single i.v. dose, 2 mg/kg RNA, day 3): 31%
- reduction in HPRT expression in heart of C57BL/6 mice (single i.v. dose, 2 mg/kg RNA, day 3): 30%
Substance: antiTfR-siHPRT complex: RI7 217 anti-TfR1 Fab (DTX-A-002) covalently linked via a non-cleavable GMBS linker to HPRT siRNA (siHPRT)
